{"source": "patent EP2386565A2", "about": "“Compounds and methods to inhibit or augment an inflammatory response” (Cambridge Enterprise Ltd., priority 1999, dated 2000)", "key": {"[1]": {"molecular_target": "T1, Duffy Antigen Receptor for Chemokines (DARC) (human), Q16570", "T1 chain": "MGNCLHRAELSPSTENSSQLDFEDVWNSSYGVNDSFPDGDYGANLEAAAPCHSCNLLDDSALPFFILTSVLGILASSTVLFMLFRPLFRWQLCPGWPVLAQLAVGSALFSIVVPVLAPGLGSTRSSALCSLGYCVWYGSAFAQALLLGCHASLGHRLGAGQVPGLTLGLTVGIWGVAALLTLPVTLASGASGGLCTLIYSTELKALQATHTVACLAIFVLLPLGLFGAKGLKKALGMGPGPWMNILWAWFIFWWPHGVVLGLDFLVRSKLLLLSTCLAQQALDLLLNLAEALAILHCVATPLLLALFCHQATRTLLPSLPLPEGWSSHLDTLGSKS", "experiment": "Table 18, DARC binding (µM); method not restated"}, "CCR5 (human), P51681": {"molecular_target": "CCR5 (human), P51681", "sequence (P51681 whole entry)": "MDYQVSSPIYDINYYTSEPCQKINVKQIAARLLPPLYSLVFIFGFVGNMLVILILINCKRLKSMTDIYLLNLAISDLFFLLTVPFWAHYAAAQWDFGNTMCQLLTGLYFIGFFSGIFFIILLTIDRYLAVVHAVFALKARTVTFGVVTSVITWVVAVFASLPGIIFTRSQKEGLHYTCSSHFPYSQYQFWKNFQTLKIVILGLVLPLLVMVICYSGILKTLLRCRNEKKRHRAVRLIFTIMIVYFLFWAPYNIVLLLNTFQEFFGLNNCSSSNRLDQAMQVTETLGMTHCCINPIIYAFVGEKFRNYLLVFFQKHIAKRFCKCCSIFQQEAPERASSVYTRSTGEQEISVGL", "experiment": "not stated; given as affinity constant"}, "CXCR4 (human), P61073": {"molecular_target": "T2, CXCR4 (human), P61073", "T2 chain": "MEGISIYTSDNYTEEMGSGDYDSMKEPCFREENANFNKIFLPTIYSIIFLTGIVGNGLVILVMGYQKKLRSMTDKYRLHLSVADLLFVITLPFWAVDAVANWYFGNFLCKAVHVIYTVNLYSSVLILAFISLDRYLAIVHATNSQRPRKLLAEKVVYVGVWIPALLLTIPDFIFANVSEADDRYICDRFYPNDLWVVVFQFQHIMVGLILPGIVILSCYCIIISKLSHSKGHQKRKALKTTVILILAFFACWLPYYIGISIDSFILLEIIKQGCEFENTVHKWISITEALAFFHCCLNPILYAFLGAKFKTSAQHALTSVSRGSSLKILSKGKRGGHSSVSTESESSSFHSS", "experiment": "not stated; given as affinity constant"}, "[2]": {"molecular_target": "T1, Duffy Antigen Receptor for Chemokines …", "experiment": "Duffy binding against the LFL peptide"}, "[3]": {"molecular_target": "T1, Duffy Antigen Receptor for Chemokines …", "experiment": "Duffy binding; kind of constant not named"}, "[4]": {"molecular_target": "chemokine receptors on THP-1 cells", "experiment": "biotinylated peptide 2 on THP-1 cells, streptavidin-peroxidase, with and without 100 µM peptide 3; given as affinity constant"}, "[5]": {"molecular_target": "chemokine receptors on THP-1 cells", "experiment": "comparison of DARC binding and THP-1 cells"}, "[6]": {"molecular_target": "chemokine receptors on THP-1 cells", "experiment": "binding to THP-1 cells; printed as association constant in concentration units"}, "[7]": {"molecular_target": "T3, Duffy Antigen Receptor for Chemokines (DARC) (human) (UniProt Q16570)", "T3 sequence (looked up)": "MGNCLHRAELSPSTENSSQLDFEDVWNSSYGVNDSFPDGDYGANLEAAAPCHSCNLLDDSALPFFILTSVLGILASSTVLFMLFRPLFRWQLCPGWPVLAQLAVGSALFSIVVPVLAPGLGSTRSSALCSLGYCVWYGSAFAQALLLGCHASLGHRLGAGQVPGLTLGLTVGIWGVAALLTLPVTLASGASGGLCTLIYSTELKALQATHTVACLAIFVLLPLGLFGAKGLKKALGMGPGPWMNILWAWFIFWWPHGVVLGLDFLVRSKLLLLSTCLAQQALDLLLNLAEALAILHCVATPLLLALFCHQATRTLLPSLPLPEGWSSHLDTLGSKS", "experiment": "estimated ka for binding to red blood cells divided by average inhibitory ED50 in THP-1 migration"}, "[8]": {"molecular_target": "T3, Duffy Antigen Receptor for Chemokines (DARC) (human)", "experiment": "DARC binding; method not restated"}, "[9]": {"molecular_target": "chemokine receptors on THP-1 cells", "experiment": "estimated ka for binding to THP-1 cells (column 'average ED50', peptide 2 family footnote)"}, "[10]": {"molecular_target": "chemokine receptors on THP-1 cells", "experiment": "binding to chemokine receptors on THP-1 cells; given as association constant"}, "[11]": {"molecular_target": "T3, Duffy Antigen Receptor for Chemokines (DARC) (human)", "experiment": "Table 18, DARC binding (µM); >100 = ED50 not determined"}, "[12]": {"molecular_target": "T3, Duffy Antigen Receptor for Chemokines (DARC) (human)", "experiment": "Table 18, DARC binding (µM); method not restated"}, "[13]": {"molecular_target": "T3, Duffy Antigen Receptor for Chemokines (DARC) (human)", "experiment": "ka for binding to red blood cells divided by ka for binding to THP-1 cells"}, "[14]": {"molecular_target": "chemokine receptors on THP-1 cells", "experiment": "binding to chemokine receptors on THP-1 cells; printed as Ka in concentration units"}, "[15]": {"molecular_target": "chemokine receptors on the surface of Jurkat cells", "experiment": "binding to chemokine receptors on the surface of Jurkat cells; printed as Ka in concentration units"}}, "note": "Positions of bridges follow the written chain, without caps; N, C: chain ends. Non-standard residues stand in square brackets, D forms with d. No end group written: not given here. *: point of attachment. Biotin = O=C1N[C@H]2[C@H](CS[C@H]2CCCCC(=O)*)N1"}
{"binder": "VAEKPCKSSTIRRYS (not fully specified (some residues))", "note": "[LRD peptide 2(1-15)[MCP-1]]", "values": [{"measurement": "DARC binding", "setting": "[1]", "value": 18, "unit": "µM"}, {"measurement": "Kd", "setting": "CCR5 (human), P51681", "value": "< 0.1", "unit": "µM"}, {"measurement": "Kd", "setting": "CXCR4 (human), P61073", "value": "< 0.1", "unit": "µM"}, {"measurement": "fold decrease in Duffy binding against LFL peptide 2", "setting": "[2]", "value": 100, "unit": "fold"}, {"measurement": "Kd", "setting": "[3]", "value": 25, "unit": "µM"}, {"measurement": "gp120 ED-50", "setting": "chemokine receptors", "value": 3, "unit": "µM"}]}
{"binder": "Biotin-SYRRITSSKCPKEAV", "note": "[N-terminal biotin-labeled derivative of peptide 2(1-15)[MCP-1]]", "values": [{"measurement": "Kd", "setting": "[4]", "value": 250, "unit": "µM"}]}
{"binder": "EICLDPKQKWIQ", "note": "[Leu4Ile11peptide 3(1-12)[MCP-1]]", "values": [{"measurement": "selectivity for receptors on THP-1 cells over DARC", "setting": "[5]", "value": "> 20", "unit": "fold"}]}
{"binder": "EICADPKQKWVQ", "note": "[Peptide 3(1-12)[MCP-1]]", "values": [{"measurement": "Kd", "setting": "[6]", "value": 10, "unit": "µM"}, {"measurement": "Duffy selectivity", "setting": "[7]", "value": 1}]}
{"binder": "SYRRITSSKSPKEAV", "note": "[Ser10 variant of peptide 2(1-15)[MCP-1]]", "values": [{"measurement": "DARC binding", "setting": "[8]", "value": "20 to 100", "unit": "µM"}]}
{"binder": "ELRVIESGPHCANTEI", "note": "[Pep2(1-16)[IL8]]", "values": [{"measurement": "Kd", "setting": "[9]", "value": "1 to 10", "unit": "µM"}]}
{"binder": "[dC][dQ][dV][dW][dK][dQ][dK][dP][dD][dA][dC] (disulfide 1-11; not fully specified)", "note": "[CRD-Cys13pep3[3-12]]", "values": [{"measurement": "Duffy selectivity", "setting": "[7]", "value": 8.82}]}
{"binder": "DYFETSSQCSKPGV", "note": "[Pep2(1-14)[MIP1α]]", "values": [{"measurement": "Kd", "setting": "[10]", "value": "0.1 to 0.9", "unit": "µM"}, {"measurement": "gp120 ED-50", "setting": "chemokine receptors", "value": "> 100", "unit": "µM"}, {"measurement": "Kd", "setting": "[9]", "value": "1 to 10", "unit": "µM"}]}
{"binder": "CPKEAV", "values": [{"measurement": "DARC binding", "setting": "[11]", "value": "> 100", "unit": "µM"}]}
{"binder": "[dC][dV][dA][dE][dK][dP][dS][dK][dS][dS][dT][dI][dR][dR][dY][dS][dC] (cysteine pairing not given here)", "note": "[LRD Cys0Ser10Cys16 derivative of peptide 2(1-15)[MCP-1]]", "values": [{"measurement": "DARC binding", "setting": "[11]", "value": "> 100", "unit": "µM"}]}
{"binder": "EICADP", "note": "[Peptide 3(1-6)[MCP-1]]", "values": [{"measurement": "Duffy selectivity", "setting": "[7]", "value": 5.32}]}
{"binder": "EICADPSQKWVQ", "note": "[Ser7peptide 3(1-12)[MCP-1]]", "values": [{"measurement": "Duffy selectivity", "setting": "[7]", "value": 2}]}
{"binder": "HLKILNTPNCALQIV", "note": "[Pep2(1-15)[SDF1]]", "values": [{"measurement": "DARC binding", "setting": "[12]", "value": 19, "unit": "µM"}, {"measurement": "Duffy selectivity", "setting": "[13]", "value": "< 1"}, {"measurement": "gp120 ED-50", "setting": "chemokine receptors", "value": 35, "unit": "µM"}, {"measurement": "Kd", "setting": "[9]", "value": "1 to 10", "unit": "µM"}]}
{"binder": "CADPKQKWVQ", "note": "[Peptide 3(3-12)[MCP-1]]", "values": [{"measurement": "Duffy selectivity", "setting": "[7]", "value": 1.21}]}
{"binder": "KQKWVQ", "note": "[Peptide 3(7-12)[MCP-1]]", "values": [{"measurement": "Duffy selectivity", "setting": "[7]", "value": 2.94}]}
{"binder": "SYRRITSSKCPKEAV", "note": "[Peptide 2(1-15)[MCP-1]]", "values": [{"measurement": "Kd", "setting": "[14]", "value": 0.3, "unit": "µM"}, {"measurement": "Kd", "setting": "[15]", "value": 0.25, "unit": "µM"}, {"measurement": "gp120 ED-50", "setting": "chemokine receptors", "value": 0.4, "unit": "µM"}, {"measurement": "Kd", "setting": "[9]", "value": 2, "unit": "µM"}]}
{"binder": "EICADPSEEWVQ (not fully specified)", "note": "[Ser7Glu8Glu9peptide 3(1-12)[MCP-1]]", "values": [{"measurement": "Duffy selectivity", "setting": "[7]", "value": 0.59}]}
